Experimental data published in article PMC5821942, “Crystal structure of IspF from Bacillus subtilis and absence of protein complex assembly amongst IspD/IspE/IspF enzymes in the MEP pathway” (Bioscience Reports, 2018).

How the values were obtained:
[1] = molecular target: the molecule itself; assay: SEC; Superdex200 10/300 GL; single E. coli proteins and triple mixture (0.2 mg each, 250 μl); 100 mM NaCl, 25 mM Tris/HCl pH 8.0; 1 mM MgCl2, 1 mM MEP, 1 mM CTP if IspD present; 30°C 30 min
[2] = molecular target: the molecule itself; assay: SEC; Superdex75 10/300 GL; single B. subtilis proteins and triple mixture (0.2 mg each, 250 μl); 100 mM NaCl, 25 mM Tris/HCl pH 8.0; 1 mM MgCl2, 1 mM MEP, 1 mM CTP if IspD present; 30°C 30 min
[3] = molecular target: the molecule itself; assay: crystal structure; BsIspF native and with CMP, space group P2(1), six monomers in the asymmetric unit, 1.99 Å

B1: 2-C-Methyl-D-erythritol 2,4-cyclodiphosphate synthase (IspF) from Escherichia coli (enzyme, Escherichia coli K12, UniProt P62617 1-159, looked up)
chain: MRIGHGFDVHAFGGEGPIIIGGVRIPYEKGLLAHSDGDVALHALTDALLGAAALGDIGKLFPDTDPAFKGADSRELLREAWRRIQAKGYTLGNVDVTIIAQAPKMLPHIPQMRVFIAEDLGCHMDDVNVKATTTEKLGFTGRGEGIACEAVALLIKATK
notes: IspF of E. coli K12; ispF gene PCR amplified and inserted into pET-22b; histidine tag removed by thrombin; also called EcIspF; source: E. coli BL21 (DE3) (pET-22b), purified (Ni-NTA, Resource Q, Superdex 75); not shown: His6, C-terminal, cleaved
Question: For B1, which “stoichiometry N” value [1] is on record?
Answer: The value was 3.

B2: 2-C-Methyl-D-erythritol-4-phosphate cytidyltransferase (IspD) from Bacillus subtilis (enzyme, Bacillus subtilis 168, UniProt Q06755 1-232, looked up)
chain: MSYDVVIPAAGQGKRMKAGRNKLFIELKGDPVIIHTLRVFDSHRQCDKIILVINEQEREHFQQLLSDYPFQTSIELVAGGDERQHSVYKGLKAVKQEKIVLVHDGARPFIKHEQIDELIAEAEQTGAAILAVPVKDTIKRVQDLQVSETIERSSLWAVQTPQAFRLSLLMKAHAEAERKGFLGTDDASLVEQMEGGSVRVVEGSYTNIKLTTPDDLTSAEAIMESESGNKHV
notes: IspD of B. subtilis 168 (DSM 23778); ispD gene amplified from genomic DNA, ~699 bp product, cloned BamHI/XhoI into pGEX-6P-1; GST removed by PreScission protease; also called BsIspD; source: E. coli DH5α (pGEX-6P-1), purified (Glutathione Sepharose 4 Fast Flow, Resource Q, Superdex 75)
Question: Which “stoichiometry N” value [2] does the source give for B2 here?
Answer: The value was 2.

B3: 2-C-Methyl-D-erythritol-4-phosphate cytidyltransferase (IspD) from Escherichia coli (enzyme, Escherichia coli K12, UniProt Q46893 1-236, looked up)
chain: MATTHLDVCAVVPAAGFGRRMQTECPKQYLSIGNQTILEHSVHALLAHPRVKRVVIAISPGDSRFAQLPLANHPQITVVDGGDERADSVLAGLKAAGDAQWVLVHDAARPCLHQDDLARLLALSETSRTGGILAAPVRDTMKRAEPGKNAIAHTVDRNGLWHALTPQFFPRELLHDCLTRALNEGATITDEASALEYCGFHPQLVEGRADNIKVTRPEDLALAEFYLTRTIHQENT
notes: IspD of E. coli K12; ispD gene PCR amplified and inserted into pET-22b; histidine tag removed by thrombin; also called EcIspD; source: E. coli BL21 (DE3) (pET-22b), purified (Ni-NTA, Resource Q, Superdex 75); not shown: His6, C-terminal, cleaved
Question: For B3, which “stoichiometry N” value [1] is on record?
Answer: The value was 2.

B4: 2-C-Methyl-D-erythritol 2,4-cyclodiphosphate synthase (IspF) from Bacillus subtilis (enzyme, Bacillus subtilis 168)
chain: MFRIGQGFDVHQLVEGRPLIIGGIEIPYEKGLLGHSDADVLLHTVADACLGAVGEGDIGKHFPDTDPEFKDADSFKLLQHVWGIVKQKGYVLGNIDCTIIAQKPKMLPYIEDMRKRIAEGLEADVSQVNVKATTTEKLGFTGRAEGIAAQATVLIQKG
notes: IspF of B. subtilis 168 (DSM 23778); ispF gene amplified from genomic DNA, ~477 bp product, cloned BamHI/XhoI into pGEX-6P-1; GST removed by PreScission protease; also called BsIspF; MEcDP synthase; source: E. coli DH5α (pGEX-6P-1), purified (Glutathione Sepharose 4 Fast Flow, Resource Q, Superdex 75)
Question: B4 was tested. Which “stoichiometry N” value [3] did it give?
Answer: Its value is 3.
